From patent US10583180B2, “Method for treating adenosine deaminase severe combined imunodeficiency” (UCL Business PLC, priority 2015, dated 2020)
Entries after “also recorded” stand apart in the source; their conditions may differ.

Legend:
ADA-deficient SCID = assay: Phase I/II clinical trial of autologous CD34+ cells transduced with EFS-ADA lentiviral vector; format: in vivo, human; details: weight adjusted dose prior to reinfusion
Excerpt: For the non-controlled, non-randomised Phase I/II clinical trial, to assess the safety and efficacy of autologous transplantation of CD34+ cells from ADA-deficient SCID infants following human ADA cDNA transfer by the EFS-ADA lentiviral vector, subjects received the infusion of their autologous, transduced cells following marrow cytoreduction with busulfan.
Patients were selected on the basis of inclusion and exclusion criteria detailed below. A back-up harvest was retained in case of failure of reconstitution following conditioning and re-infusion of transduced cells. For the transduction protocol, CD34+ cells were purified from G-CSF mobilised PBSCs recovered by leukapheresis (Plerixafor could be added to enhance mobilization), whenever possible or from bone marrow harvested under general anaesthetic. Back up cells of 3×10^6 CD34+/kg were stored from a single procedure if sufficient cell counts were available (and if not previously stored). The remaining CD34+ cells were taken forward for transduction. […] After purification, CD34+ cells were immediately transduced with the lentiviral vector, then evaluated for sterility, cell count, and viability, and immediately infused into patients. Several other tests for safety including testing for RCLs were performed on reinfused cells and results recorded retrospectively. […]

ADA−/− mice = assay: Reconstitution of lethally irradiated ADA−/− mice with transduced lin-ve cells, analysed after 12 weeks; details: mouse, in vivo
Excerpt: Early models of ADA deficient mice were limited by embryonic or peri-natal lethality as a result of severe hepatocellular and pulmonary damage. A two stage transgenic strategy in which ADA expression is restricted to trophoblasts rescues ADA null mice from pre- and peri-natal lethality and allows post-natal study of mice lacking ADA expression. In this model, many features of the human disease are accurately represented. Mice show abnormalities of thymic architecture with a significant block in thymocyte development at the CD4-CD8- double negative stage. […] In the periphery, there is a profound lymphopaenia with a severe T, B and NK cell deficiency that is seen in humans together with abnormalities in splenic lymphoid architecture and a paucity of splenic T cell populations. Murine ADA deficiency also manifests a number of non-immunological abnormalities including lung, renal, costochondral and neurological changes. Pulmonary problems are present in mice from ˜postnatal day 12 and are associated with significant lung inflammatory changes, eventually leading to the death of mice by postnatal day 22 from pulmonary insufficiency, unless early treatment is initiated. […] Mice were analysed after 12 weeks and compared with ADA−/− mice, mice that had undergone wild type transplant experiments (WT) or mice that had been treated with enzyme replacement therapy alone. […]

ADA-SCID patients = details: cited from earlier work

Molecule	toxicities of conditioning (ADA-deficient SCID)	T cells in the mononuclear fraction of peripheral blood (ADA−/− mice)	overall probability of surviving 20 years on ERT (ADA-SCID patients; estimated) [%]	enzyme activity on a ml to ml basis relative to packed erythrocytes (ADA-SCID patients; in vivo) [times]	patients developing antibodies against bovine epitopes (ADA-SCID patients; in vivo) [%]	probability of surviving the next 12 years (ADA-SCID patients; patient alive 6 months after starting ERT)
CS(=O)(=O)OCCCCOS(C)(=O)=O [Busulfan]	No toxicities; also recorded: without any significant toxicity					
PEG-ADA: bovine form of ADA conjugated to polyethylene glycol; enzyme replacement therapy (conjugate, UniProt P56658 2-363, looked up, PEG conjugate (pegademase bovine), bovine form of ADA conjugated to polyethylene glycol; enzyme replacement therapy) Adenosine deaminase: AQTPAFNKPKVELHVHLDGAIKPETILYYGRKRGIALPADTPEELQNIIGMDKPLSLPEFLAKFDYYMPAIAGCREAVKRIAYEFVEMKAKDGVVYVEVRYSPHLLANSKVEPIPWNQAEGDLTPDEVVSLVNQGLQEGERDFGVKVRSILCCMRHQPSWSSEVVELCKKYREQTVVAIDLAGDETIEGSSLFPGHVKAYAEAVKSGVHRTVHAGEVGSANVVKEAVDTLKTERLGHGYHTLEDATLYNRLRQENMHFEVCPWSSYLTGAWKPDTEHPVVRFKNDQVNYSLNTDDPLIFKSTLDTDYQMTKNEMGFTEEEFKRLNINAAKSSFLPEDEKKELLDLLYKAYGMPSPASAEQCL		marked increase in T cell recovery	78	~1800	~50	about 90%
